How the values were obtained:
[1] = target: T1, human VEGF (human), P15692; test: Biacore SPR, Fab captured by anti-light chain antibody, VEGF as analyte; conditions: remark: other sources report otherwise
T1 chain: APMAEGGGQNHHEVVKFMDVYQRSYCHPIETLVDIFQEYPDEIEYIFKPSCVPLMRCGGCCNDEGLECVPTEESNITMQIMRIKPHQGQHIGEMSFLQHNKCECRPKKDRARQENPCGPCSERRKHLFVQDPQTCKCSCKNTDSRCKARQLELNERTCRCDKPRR

[2] = target: T1, human VEGF (human), P15692; test: Biacore; conditions: bispecific antibody; chains VL:VH; remark: other sources report otherwise

Kd [1]: 7.8 nM | koff [2]: 0.000738 s⁻¹
B1: VH6L (bispecific antibody, V domains shown)
VL: NIQKTQSPSSLSASVGDRVTITCRALWHISSYLAWYQQKPGKAPKLLIYAASHLHYGVPSRFSGSGSGTDFTLTISSLQPEDFATYYCQQYSGLPYTFGQGTKVEIK
VH: YYQLVESGGGLVQPGGSLRLSCAADGFLFSGYAMSWIRQAPGKGLEWIGQISGSGGSTVYNYNVLGRFTISRDNSKNTLYLQMNSLRAEDTAVYYCARDTGYFDHWGQGTLVTVSS
